Results on 94 variants are retold here after the supplement of paper PMC10567573.

B1: PBXIP1 (parent)
chain: LQQLRARLQGLEADCVRGPDGVCL
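Further: lentivirally expressed fusions sorted by FACS into six bins by GFP to DsRed ratio, PSI derived from sequencing read proportions per bin multiplied by bin number.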

In this series the parent is B1. The experiment in a line: protein stability index of a GFP-peptide fusion (GPS, HEK-293T) (PSI 1-6); higher = more stable. The conditions noted are these: c terminus: a fixed tail appended.
As for LQQLRARLQGLTADCVRGPDGVCL, the protein stability index was 2.02. For the variant LQQLRARLQGLDADCVRGPDGVCL, the protein stability index was 2.23. For the variant LQQLRARLQGLQADCVRGPDGVCL, the protein stability index stood at 2.26. For the variant LQQLRARLQGLVADCVRGPDGVCL, the protein stability index came to 2.79. LQQLRARLQGLPADCVRGPDGVCL: the protein stability index was 1.8. As to LQQLRARLQGLYADCVRGPDGVCL, the protein stability index was 2.73. Under LQQLRARLQGLEAGCVRGPDGVCL stands 1.15. Under LQQLRARLQGLEAWCVRGPDGVCL stands 1.32; under LQQLRARLQGLEARCVRGPDGVCL, 2.93.

On to LQQLRARLQGLEAPCVRGPDGVCL, for which the protein stability index was 2.1. With LQQLRARLQGLEAMCVRGPDGVCL, the protein stability index was determined as 3.39. In the case of LQQLRARLQGLEAECVRGPDGVCL, the protein stability index was 2.24.

LQQLRARLQGLEAQCVRGPDGVCL: the protein stability index came out at 2.21. Regarding LQQLRARLQGLEANCVRGPDGVCL, the protein stability index was 1.75. Consider LQQLRARLQGLEAICVRGPDGVCL, for which the protein stability index worked out at 2.73. Consider LQQLRARLQGLEAYCVRGPDGVCL, for which the protein stability index stood at 1.14. In the case of LQQLRARLQGLEADCVRGPVGVCL, the protein stability index is 1.8. LQQLRARLQGLEADCVRGPGGVCL: the protein stability index came to 2.45.

On to LQQLRARLQGLEADCVRGPPGVCL, for which the protein stability index turned out to be 1.5. Turning to LQQLRARLQGLEADCVRGPYGVCL, the protein stability index came to 1.26. The same measure for LQQLRARLQGLEADCVRGPWGVCL: 1.84. On to LQQLRARLQGLEADCVRGPHGVCL, for which the protein stability index stood at 1.6. Under LQQLRARLQGLEADCVRGPMGVCL stands 1.53. In the case of LQQLRARLQGLEADCVRGPTGVCL, the protein stability index was found to be 2.12. Turning to LQQLRARLQGLEADCVRGPAGVCL, the protein stability index worked out at 2.03. Turning to LQQLRARLQGLEADCVRGPKGVCL, the protein stability index was found to be 2.08. Take LQQLRARLQGLEADCVRGPRGVCL: the protein stability index stood at 2.54. Consider LQQLRARLQGLEADCVRGPEGVCL, for which the protein stability index was 1.89. In the case of LQQLRARLQGLEADCVRGPIGVCL, the protein stability index came to 1.9.

With LQQLRARLQGLEADCVRGPQGVCL, the protein stability index was 3.03. Take LQQLRARLQGLEADCVRGVDGVCL: the protein stability index is 2.65. Turning to LQQLRARLQGLEADCVRGYDGVCL, the protein stability index is 2.13. Under LQQLRARLQGLEADCVRGWDGVCL stands 1.5; under LQQLRARLQGLEADCVRGFDGVCL, 1.92; under LQQLRARLQGLEADCVRGKDGVCL, 1.98. LQQLRARLQGLEADCVRGNDGVCL: the protein stability index amounted to 1. For LQQLRARLQGLEADCVRGTDGVCL, the protein stability index stood at 2.12.

For the variant LQQLRARLQGLEADCVRGIDGVCL, the protein stability index came to 2.58. Take LQQLRARLQGLEADCVRGDDGVCL: the protein stability index stood at 2.23.

Take LQQLRARLQGLEADCVRGSDGVCL: the protein stability index was 1. The same measure for LQQLRARLQGLEADCVRGHDGVCL: 2.62; for LQQLRARLQGLEADCVRGRDGVCL: 1.41; for LQQLRARLQGLECDCVRGPDGVCL: 2.08. For the variant LQQLRARLQGLEKDCVRGPDGVCL, the protein stability index was found to be 2.52.

With LQQLRARLQGLESDCVRGPDGVCL, the protein stability index turned out to be 2.29.

LQQLRARLQGLEQDCVRGPDGVCL: the protein stability index turned out to be 3.12. On to LQQLRARLQGLEIDCVRGPDGVCL, for which the protein stability index amounted to 1.34. On to LQQLRARLQGLEHDCVRGPDGVCL, for which the protein stability index stood at 1.68. Turning to LQQLRARLQGLENDCVRGPDGVCL, the protein stability index was 2.56. Under LQQLRARLQGLEEDCVRGPDGVCL stands 2.97. As for LQQLRARLQGLELDCVRGPDGVCL, the protein stability index was 1.45. The same measure for LQQLRARLQGLEGDCVRGPDGVCL: 1.87; for LQQLRARLQGLEWDCVRGPDGVCL: 1.01. Take LQQLRARLQGLEYDCVRGPDGVCL: the protein stability index was 2.01.

Consider LQQLRARLQGLEMDCVRGPDGVCL, for which the protein stability index was 2.79. On to LQQLRARLQGLEVDCVRGPDGVCL, for which the protein stability index worked out at 2.35. On to LQQLRARLQGLEADNVRGPDGVCL, for which the protein stability index was 1.95. Consider LQQLRARLQGLEADYVRGPDGVCL, for which the protein stability index worked out at 2.13. For the variant LQQLRARLQGLEADWVRGPDGVCL, the protein stability index worked out at 2. In the case of LQQLRARLQGLEADIVRGPDGVCL, the protein stability index amounted to 1.87.

Regarding LQQLRARLQGLEADKVRGPDGVCL, the protein stability index was 2.29.

Regarding LQQLRARLQGLEADTVRGPDGVCL, the protein stability index worked out at 2.18.

LQQLRARLQGLEADAVRGPDGVCL: the protein stability index was 2.6. The same measure for LQQLRARLQGLEADDVRGPDGVCL: 2.65. LQQLRARLQGLEADSVRGPDGVCL: the protein stability index amounted to 2.16. Regarding LQQLRARLQGLEADGVRGPDGVCL, the protein stability index is 1.96. Regarding LQQLRARLQGLEADQVRGPDGVCL, the protein stability index worked out at 1.99. As to LQQLRARLQGLEADLVRGPDGVCL, the protein stability index was 2.5. With LQQLRARLQGLEADHVRGPDGVCL, the protein stability index is 1.81. LQQLRARLQGPEADCVRGPDGVCL: the protein stability index was 2.07. For LQQLRARLQGNEADCVRGPDGVCL, the protein stability index is 3.09. Regarding LQQLRARLQGKEADCVRGPDGVCL, the protein stability index worked out at 3.69. Under LQQLRARLQGDEADCVRGPDGVCL stands 4.28. Consider LQQLRARLQGGEADCVRGPDGVCL, for which the protein stability index stood at 4.24. In the case of LQQLRARLQGREADCVRGPDGVCL, the protein stability index stood at 2.88. Consider LQQLRARLQGSEADCVRGPDGVCL, for which the protein stability index is 3.09. Turning to LQQLRARLQGYEADCVRGPDGVCL, the protein stability index is 2.75. Consider LQQLRARLQGIEADCVRGPDGVCL, for which the protein stability index is 1.93.

On to LQQLRARLQGFEADCVRGPDGVCL, for which the protein stability index came to 2.25. Under LQQLRARLQGTEADCVRGPDGVCL stands 3.01. On to LQQLRARLQGMEADCVRGPDGVCL, for which the protein stability index stood at 2.75.

Turning to LQQLRARLQGHEADCVRGPDGVCL, the protein stability index came out at 2.41. Regarding LQQLRARLQGQEADCVRGPDGVCL, the protein stability index turned out to be 3.97. Under LQQLRARLQGAEADCVRGPDGVCL stands 2.46. The same measure for LQQLRARLQGWEADCVRGPDGVCL: 2.78; for LQQLRARLQGEEADCVRGPDGVCL: 3.75; for LQQLRARNQGLEADCVRGPDGVCL: 3.94. Take LQQLRARMQGLEADCVRGPDGVCL: the protein stability index is 2.05. As for LQQLRARPQGLEADCVRGPDGVCL, the protein stability index amounted to 3.56. As to LQQLRARQQGLEADCVRGPDGVCL, the protein stability index was determined as 3.36. Consider LQQLRARWQGLEADCVRGPDGVCL, for which the protein stability index is 2.24. Consider LQQLRARKQGLEADCVRGPDGVCL, for which the protein stability index was 3.57. Take LQQLRARVQGLEADCVRGPDGVCL: the protein stability index came to 1.99. LQQLRARTQGLEADCVRGPDGVCL: the protein stability index was 3.43.
